In PMC5268470:

Tests used:
[1] = [3H]-taurocholate uptake, Huh-7; conditions: glycan lost; control: NTCP-WT
[2] = anti-HA confocal immunofluorescence, HepG2; conditions: glycan lost; control: NTCP-WT
[3] = anti-HA IP-immunoblot, ImageJ quantification; conditions: glycan lost; control: NTCP-WT
[4] = Myrcludex B-FITC cell-surface fluorescence, plate reader; conditions: glycan lost; control: NTCP-WT
[5] = cell surface biotinylation, immunoblot; conditions: glycan lost; control: NTCP-WT
[6] = HBeAg ELISA, 3 days post infection, HepG2; conditions: glycan lost; control: NTCP-WT
[7] = [3H]-taurocholate uptake, 2 min, HepG2; conditions: glycan lost; control: NTCP-WT
[8] = intracellular cccDNA qPCR, 3 days post infection, HepG2; conditions: glycan lost; control: NTCP-WT
[9] = [3H]-taurocholate uptake, HepG2, untagged NTCP; conditions: glycan lost; control: untagged NTCP-WT

| Protein | other: transport activity [1] | localisation_or_trafficking [2] | expression_or_secretion [3] | localisation_or_trafficking [4] | localisation_or_trafficking [5] | other: HBV receptor activity (infection) [6] | other: transport activity [7] | other: HBV receptor activity (infection) [8] | other: transport activity [9] |
| --- | --- | --- | --- | --- | --- | --- | --- | --- | --- |
| Na+-taurocholate cotransporting polypeptide (NTCP): NTCP-N5,11Q (protein) parent chain: MEAHNASAPFNFTLPPNFGKRPTDLALSVILVFMLFFIMLSLGCTMEFSKIKAHLWKPKGLAIALVAQYGIMPLTAFVLGKVFRLKNIEALAILVCGCSPGGNLSNVFSLAMKGDMNLSIVMTTCSTFCALGMMPLLLYIYSRGIYDGDLKDKVPYKGIVISLVLVLIPCTIGIVLKSKRPQYMRYVIKGGMIIILLCSVAVTVLSAINVGKSIMFAMTPLLIATSSLMPFIGFLLGYVLSALFCLNGRCRRTVSMETGCQNVQLCSTILNVAFPPEVIGPLFFFPLLYMIFQLGEGLLLIAIFWCYEKFKTPKDKTKMIYTAATTEETIPGALGNGTYKGEDCSPCTA | decreases | changes | decreases | decreases | abolishes | – | – | – | – |
| Na+-taurocholate cotransporting polypeptide (NTCP): NTCP-N5Q (protein) parent chain: MEAHNASAPFNFTLPPNFGKRPTDLALSVILVFMLFFIMLSLGCTMEFSKIKAHLWKPKGLAIALVAQYGIMPLTAFVLGKVFRLKNIEALAILVCGCSPGGNLSNVFSLAMKGDMNLSIVMTTCSTFCALGMMPLLLYIYSRGIYDGDLKDKVPYKGIVISLVLVLIPCTIGIVLKSKRPQYMRYVIKGGMIIILLCSVAVTVLSAINVGKSIMFAMTPLLIATSSLMPFIGFLLGYVLSALFCLNGRCRRTVSMETGCQNVQLCSTILNVAFPPEVIGPLFFFPLLYMIFQLGEGLLLIAIFWCYEKFKTPKDKTKMIYTAATTEETIPGALGNGTYKGEDCSPCTA | – | no change | – | decreases | no change | no change | no change | no change | – |
| Na+-taurocholate cotransporting polypeptide (NTCP): NTCP-N11Q (protein) parent chain: MEAHNASAPFNFTLPPNFGKRPTDLALSVILVFMLFFIMLSLGCTMEFSKIKAHLWKPKGLAIALVAQYGIMPLTAFVLGKVFRLKNIEALAILVCGCSPGGNLSNVFSLAMKGDMNLSIVMTTCSTFCALGMMPLLLYIYSRGIYDGDLKDKVPYKGIVISLVLVLIPCTIGIVLKSKRPQYMRYVIKGGMIIILLCSVAVTVLSAINVGKSIMFAMTPLLIATSSLMPFIGFLLGYVLSALFCLNGRCRRTVSMETGCQNVQLCSTILNVAFPPEVIGPLFFFPLLYMIFQLGEGLLLIAIFWCYEKFKTPKDKTKMIYTAATTEETIPGALGNGTYKGEDCSPCTA | – | no change | – | decreases | no change | no change | no change | no change | – |
| Na+-taurocholate cotransporting polypeptide (NTCP): untagged NTCP-N5,11Q (protein) parent chain: MEAHNASAPFNFTLPPNFGKRPTDLALSVILVFMLFFIMLSLGCTMEFSKIKAHLWKPKGLAIALVAQYGIMPLTAFVLGKVFRLKNIEALAILVCGCSPGGNLSNVFSLAMKGDMNLSIVMTTCSTFCALGMMPLLLYIYSRGIYDGDLKDKVPYKGIVISLVLVLIPCTIGIVLKSKRPQYMRYVIKGGMIIILLCSVAVTVLSAINVGKSIMFAMTPLLIATSSLMPFIGFLLGYVLSALFCLNGRCRRTVSMETGCQNVQLCSTILNVAFPPEVIGPLFFFPLLYMIFQLGEGLLLIAIFWCYEKFKTPKDKTKMIYTAATTEETIPGALGNGTYKGEDCSPCTA | – | – | – | – | – | – | – | – | decreases |
